The supplement of paper PMC10567573

B1: CAMK2B (parent)
chain: YQQIKAGAYDFPSPEWDTVTPEAK

Variants of: B1
Test: protein stability index of a GFP-peptide fusion (GPS, HEK-293T) (PSI 1-6); higher = more stable
Settings: c terminus: a fixed tail appended
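Further: lentivirally expressed fusions sorted by FACS into six bins by GFP to DsRed ratio, PSI derived from sequencing read proportions per bin multiplied by bin number.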

Variant	protein stability index
YQQIKAGAYDFPCPEWDTVTPEAK [S13C]	2.74
YQQIKAGAYDFPDPEWDTVTPEAK [S13D]	4.08
YQQIKAGAYDFPEPEWDTVTPEAK [S13E]	4.12
YQQIKAGAYDFPFPEWDTVTPEAK [S13F]	2.79
YQQIKAGAYDFPGPEWDTVTPEAK [S13G]	4.11
YQQIKAGAYDFPHPEWDTVTPEAK [S13H]	3.25
YQQIKAGAYDFPIPEWDTVTPEAK [S13I]	3.37
YQQIKAGAYDFPKPEWDTVTPEAK [S13K]	3.4
YQQIKAGAYDFPLPEWDTVTPEAK [S13L]	3.29
YQQIKAGAYDFPMPEWDTVTPEAK [S13M]	2.75
YQQIKAGAYDFPNPEWDTVTPEAK [S13N]	3.69
YQQIKAGAYDFPQPEWDTVTPEAK [S13Q]	2.9
YQQIKAGAYDFPRPEWDTVTPEAK [S13R]	3.29
YQQIKAGAYDFPTPEWDTVTPEAK [S13T]	3.69
YQQIKAGAYDFPVPEWDTVTPEAK [S13V]	3.18
YQQIKAGAYDFPWPEWDTVTPEAK [S13W]	2.8
YQQIKAGAYDFPYPEWDTVTPEAK [S13Y]	3.6
YQQIKAGAYDFPSAEWDTVTPEAK [P14A]	3.96
YQQIKAGAYDFPSCEWDTVTPEAK [P14C]	3.45
YQQIKAGAYDFPSDEWDTVTPEAK [P14D]	4.42
YQQIKAGAYDFPSEEWDTVTPEAK [P14E]	4.47
YQQIKAGAYDFPSFEWDTVTPEAK [P14F]	2.67
YQQIKAGAYDFPSGEWDTVTPEAK [P14G]	4.03
YQQIKAGAYDFPSHEWDTVTPEAK [P14H]	3.65

Variant	protein stability index
YQQIKAGAYDFPSIEWDTVTPEAK [P14I]	3.4
YQQIKAGAYDFPSKEWDTVTPEAK [P14K]	3.85
YQQIKAGAYDFPSLEWDTVTPEAK [P14L]	3.17
YQQIKAGAYDFPSMEWDTVTPEAK [P14M]	3.55
YQQIKAGAYDFPSNEWDTVTPEAK [P14N]	3.88
YQQIKAGAYDFPSQEWDTVTPEAK [P14Q]	3.87
YQQIKAGAYDFPSREWDTVTPEAK [P14R]	3.37
YQQIKAGAYDFPSSEWDTVTPEAK [P14S]	3.71
YQQIKAGAYDFPSTEWDTVTPEAK [P14T]	3.82
YQQIKAGAYDFPSVEWDTVTPEAK [P14V]	3.39
YQQIKAGAYDFPSWEWDTVTPEAK [P14W]	2.57
YQQIKAGAYDFPSYEWDTVTPEAK [P14Y]	2.89
YQQIKAGAYDFPSPAWDTVTPEAK [E15A]	2.93
YQQIKAGAYDFPSPCWDTVTPEAK [E15C]	2.42
YQQIKAGAYDFPSPDWDTVTPEAK [E15D]	3.86
YQQIKAGAYDFPSPFWDTVTPEAK [E15F]	2.14
YQQIKAGAYDFPSPGWDTVTPEAK [E15G]	2.72
YQQIKAGAYDFPSPHWDTVTPEAK [E15H]	2.91
YQQIKAGAYDFPSPIWDTVTPEAK [E15I]	2.53
YQQIKAGAYDFPSPKWDTVTPEAK [E15K]	2.88
YQQIKAGAYDFPSPLWDTVTPEAK [E15L]	2.52
YQQIKAGAYDFPSPMWDTVTPEAK [E15M]	2.77
YQQIKAGAYDFPSPNWDTVTPEAK [E15N]	3.41
YQQIKAGAYDFPSPPWDTVTPEAK [E15P]	2.77

Variant	protein stability index
YQQIKAGAYDFPSPQWDTVTPEAK [E15Q]	3.44
YQQIKAGAYDFPSPRWDTVTPEAK [E15R]	2.88
YQQIKAGAYDFPSPSWDTVTPEAK [E15S]	3.39
YQQIKAGAYDFPSPTWDTVTPEAK [E15T]	2.67
YQQIKAGAYDFPSPVWDTVTPEAK [E15V]	2.55
YQQIKAGAYDFPSPWWDTVTPEAK [E15W]	2.21
YQQIKAGAYDFPSPYWDTVTPEAK [E15Y]	1.99
YQQIKAGAYDFPSPEADTVTPEAK [W16A]	4.07
YQQIKAGAYDFPSPECDTVTPEAK [W16C]	4.18
YQQIKAGAYDFPSPEDDTVTPEAK [W16D]	4.79
YQQIKAGAYDFPSPEEDTVTPEAK [W16E]	4.46
YQQIKAGAYDFPSPEFDTVTPEAK [W16F]	4.16
YQQIKAGAYDFPSPEGDTVTPEAK [W16G]	4.35
YQQIKAGAYDFPSPEHDTVTPEAK [W16H]	4.35
YQQIKAGAYDFPSPEIDTVTPEAK [W16I]	4.2
YQQIKAGAYDFPSPEKDTVTPEAK [W16K]	3.45
YQQIKAGAYDFPSPELDTVTPEAK [W16L]	4.36
YQQIKAGAYDFPSPEMDTVTPEAK [W16M]	4.31
YQQIKAGAYDFPSPENDTVTPEAK [W16N]	4.55
YQQIKAGAYDFPSPEPDTVTPEAK [W16P]	4.64
YQQIKAGAYDFPSPEQDTVTPEAK [W16Q]	4.28
YQQIKAGAYDFPSPERDTVTPEAK [W16R]	3.54
YQQIKAGAYDFPSPESDTVTPEAK [W16S]	4.58
YQQIKAGAYDFPSPETDTVTPEAK [W16T]	4.39

Variant	protein stability index
YQQIKAGAYDFPSPEVDTVTPEAK [W16V]	4.2
YQQIKAGAYDFPSPEYDTVTPEAK [W16Y]	3.53
YQQIKAGAYDFPSPEWATVTPEAK [D17A]	3.25
YQQIKAGAYDFPSPEWCTVTPEAK [D17C]	2.34
YQQIKAGAYDFPSPEWETVTPEAK [D17E]	4.15
YQQIKAGAYDFPSPEWFTVTPEAK [D17F]	2.07
YQQIKAGAYDFPSPEWGTVTPEAK [D17G]	2.69
YQQIKAGAYDFPSPEWHTVTPEAK [D17H]	2.85
YQQIKAGAYDFPSPEWITVTPEAK [D17I]	2.76
YQQIKAGAYDFPSPEWKTVTPEAK [D17K]	2.69
YQQIKAGAYDFPSPEWLTVTPEAK [D17L]	2.51
YQQIKAGAYDFPSPEWMTVTPEAK [D17M]	2.6
YQQIKAGAYDFPSPEWNTVTPEAK [D17N]	3.15
YQQIKAGAYDFPSPEWPTVTPEAK [D17P]	3.27
YQQIKAGAYDFPSPEWQTVTPEAK [D17Q]	3.17
YQQIKAGAYDFPSPEWRTVTPEAK [D17R]	2.57
YQQIKAGAYDFPSPEWSTVTPEAK [D17S]	2.77
YQQIKAGAYDFPSPEWTTVTPEAK [D17T]	2.84
YQQIKAGAYDFPSPEWVTVTPEAK [D17V]	2.3
YQQIKAGAYDFPSPEWWTVTPEAK [D17W]	2
YQQIKAGAYDFPSPEWYTVTPEAK [D17Y]	2.88
YQQIKAGAYDFPSPEWDAVTPEAK [T18A]	3.69
